The assay concerns the target ATP synthase subunit α (Euglena gracilis). Description: cryo-EM structure; native ATP synthase dimer with bound IF1, co-purified as one complex from E. gracilis mitochondria; 25 mM HEPES/KOH pH 7.5, 25 mM KCl, 15 mM MgOAc2, 2 mM DTT, 0.05% β-DDM; maps: membrane region 2.82 Å, F1/c-ring rotational states 1-3 3.04, 3.14 and 3.92 Å, rotor 3.3 Å, peripheral stalk tip 3.82 Å, consensus dimer 4.32 Å.

For “ATPase inhibitory factor 1 (IF1) (natural protein)”, the percent of particles of rotational state 3 that contain IF1 came to 34%.

(Values after article PMC6930080.)
